Tests used:
Experiment in all cases: cell_activity
TALEN 103113 (synthetic) = settings: pair with 103114; K562, 400 ng
TALEN 103119 (synthetic) = settings: pair with 103120 (not in Table 2B); K562, 400 ng
TALEN 103107 (synthetic) = settings: pair with 103108; K562, 400 ng
TALEN 103109 (synthetic) = settings: pair with 103110; K562, 400 ng
TALEN 103114 (synthetic) = settings: pair with 103113; K562, 400 ng
TALEN 103111 (synthetic) = settings: pair with 103112; K562, 400 ng
TALEN 103112 (synthetic) = settings: pair with 103111; K562, 400 ng
TALEN 103115 (synthetic) = settings: pair with 103116; K562, 400 ng
TALEN 103110 (synthetic) = settings: pair with 103109; K562, 400 ng
TALEN 103108 (synthetic) = settings: pair with 103107; K562, 400 ng
TALEN 103117 (synthetic) = settings: pair with 103118; K562, 400 ng
TALEN 103116 (synthetic) = settings: pair with 103115; K562, 400 ng
TALEN 103118 (synthetic) = settings: pair with 103117; K562, 400 ng
TALEN 103106 (synthetic) = settings: pair with 103105; K562, 400 ng

Sequence: ATGAGTATGCCTGCCGTGTGA (double strand) [TALEN 103113 site]
- activity (TALEN 103113 (synthetic)): 26.6 % indel

Sequence: ATGTGACTTTGTCACAGCCCA (double strand) [TALEN 103119 site]
- activity (TALEN 103119 (synthetic)): 57.7 % indel

Sequence: ATTCACCCCCACTGAAAAAGA (double strand) [TALEN 103107/103109 site]
- activity (TALEN 103107 (synthetic)): 4.2 % indel
- activity (TALEN 103109 (synthetic)): 8 % indel

Sequence: CTATCTTGGGCTGTGACAAAG (double strand) [TALEN 103114 site]
- activity (TALEN 103114 (synthetic)): 26.6 % indel

Sequence: CTGAAAAAGATGAGTATGCCT (double strand) [TALEN 103111 site]
- activity (TALEN 103111 (synthetic)): 26.5 % indel

Sequence: CTGTGACAAAGTCACATGGTT (double strand) [TALEN 103112 site]
- activity (TALEN 103112 (synthetic)): 26.5 % indel

Sequence: GTATGCCTGCCGTGTGAACCA (double strand) [TALEN 103115 site]
- activity (TALEN 103115 (synthetic)): 66.1 % indel

Sequence: GTCACATGGTTCACACGGCAG (double strand) [TALEN 103108/103110 site]
- activity (TALEN 103110 (synthetic)): 8 % indel
- activity (TALEN 103108 (synthetic)): 4.2 % indel

Sequence: GTGTGAACCATGTGACTTTGT (double strand) [TALEN 103117 site]
- activity (TALEN 103117 (synthetic)): 45.7 % indel

Sequence: TTAACTATCTTGGGCTGTGAC (double strand) [TALEN 103116 site]
- activity (TALEN 103116 (synthetic)): 66.1 % indel

Sequence: TTACCCCACTTAACTATCTTG (double strand) [TALEN 103118 site]
- activity (TALEN 103118 (synthetic)): 45.7 % indel

Sequence: TTCACACGGCAGGCATACTCA (double strand) [TALEN 103106 site]
- activity (TALEN 103106 (synthetic)): 14.2 % indel

From US20220175839
